Here are results for six molecules from US20140087995A1 (published 2014).

Numbered stars: 1 amine (or outer) side, 2 acyl side, 3 side chain; on linkers, the order of the positions; unused ones are H or OH. Bridge positions count the residues as written; N and C are the ends. Side chains are listed from the residue outwards. Ends that are not written are not given here. * marks the point of attachment. C20 diacid = O=C(O)CCCCCCCCCCCCCCCCCCC(=O)*; γGlu = O=C(O)[C@H](CCC(=O)[*:2])N[*:1]; AEEA = NCCOCCOCC(=O)O

B1: N^α1-[(4S)-4-carboxy-4-(19-carboxynonadecanoylamino)butanoyl]-[His14,Arg17,Pro21,Pro27,Glu35]-h-amylin (peptide)
peptide: {C20 diacid-γGlu}-KCNTATCATQRLAHFLRHSSPNFGAIPSSTNVGSETY-NH2
modifications: disulfide 2-7
SMILES: CC[C@H](C)[C@H](NC(=O)[C@H](C)NC(=O)CNC(=O)[C@H](Cc1ccccc1)NC(=O)[C@H](CC(N)=O)NC(=O)[C@@H]1CCCN1C(=O)[C@H](CO)NC(=O)[C@H](CO)NC(=O)[C@H](Cc1c[nH]cn1)NC(=O)[C@H](CCCNC(=N)N)NC(=O)[C@H](CC(C)C)NC(=O)[C@H](Cc1ccccc1)NC(=O)[C@H](Cc1c[nH]cn1)NC(=O)[C@H](C)NC(=O)[C@H](CC(C)C)NC(=O)[C@H](CCCNC(=N)N)NC(=O)[C@H](CCC(N)=O)NC(=O)[C@@H](NC(=O)[C@H](C)NC(=O)[C@@H]1CSSC[C@H](NC(=O)[C@H](CCCCN)NC(=O)CC[C@H](NC(=O)CCCCCCCCCCCCCCCCCCC(=O)O)C(=O)O)C(=O)N[C@@H](CC(N)=O)C(=O)N[C@@H]([C@@H](C)O)C(=O)N[C@@H](C)C(=O)N[C@@H]([C@@H](C)O)C(=O)N1)[C@@H](C)O)C(=O)N1CCC[C@H]1C(=O)N[C@@H](CO)C(=O)N[C@@H](CO)C(=O)N[C@H](C(=O)N[C@@H](CC(N)=O)C(=O)N[C@H](C(=O)NCC(=O)N[C@@H](CO)C(=O)N[C@@H](CCC(=O)O)C(=O)N[C@H](C(=O)N[C@@H](Cc1ccc(O)cc1)C(N)=O)[C@@H](C)O)C(C)C)[C@@H](C)O
notes: also called 30; compound 30
B2: N^ε1-[2-[2-[2-(19-carboxynonadecanoylamino)ethoxy]ethoxy]acetyl]-[Arg17,Pro21,Pro27,His34]-h-amylin (peptide)
peptide: K([AEEA-C20 diacid])CNTATCATQRLANFLRHSSPNFGAIPSSTNVGHNTY-NH2
modifications: disulfide 2-7; N-terminus assumed
SMILES: CC[C@H](C)[C@H](NC(=O)[C@H](C)NC(=O)CNC(=O)[C@H](Cc1ccccc1)NC(=O)[C@H](CC(N)=O)NC(=O)[C@@H]1CCCN1C(=O)[C@H](CO)NC(=O)[C@H](CO)NC(=O)[C@H](Cc1c[nH]cn1)NC(=O)[C@H](CCCNC(=N)N)NC(=O)[C@H](CC(C)C)NC(=O)[C@H](Cc1ccccc1)NC(=O)[C@H](CC(N)=O)NC(=O)[C@H](C)NC(=O)[C@H](CC(C)C)NC(=O)[C@H](CCCNC(=N)N)NC(=O)[C@H](CCC(N)=O)NC(=O)[C@@H](NC(=O)[C@H](C)NC(=O)[C@@H]1CSSC[C@H](NC(=O)[C@@H](N)CCCCNC(=O)COCCOCCNC(=O)CCCCCCCCCCCCCCCCCCC(=O)O)C(=O)N[C@@H](CC(N)=O)C(=O)N[C@@H]([C@@H](C)O)C(=O)N[C@@H](C)C(=O)N[C@@H]([C@@H](C)O)C(=O)N1)[C@@H](C)O)C(=O)N1CCC[C@H]1C(=O)N[C@@H](CO)C(=O)N[C@@H](CO)C(=O)N[C@H](C(=O)N[C@@H](CC(N)=O)C(=O)N[C@H](C(=O)NCC(=O)N[C@@H](Cc1c[nH]cn1)C(=O)N[C@@H](CC(N)=O)C(=O)N[C@H](C(=O)N[C@@H](Cc1ccc(O)cc1)C(N)=O)[C@@H](C)O)C(C)C)[C@@H](C)O
notes: also called 91; compound 91
B3: N^ε1-[2-[2-[2-[[2-[2-[2-[[(4S)-4-carboxy-4-(19-carboxynonadecanoylamino)butanoyl]amino]ethoxy]ethoxy]acetyl]amino]ethoxy]ethoxy]acetyl]-[Arg17,Pro21,Pro27,Arg34 … (peptide)
peptide: K([AEEA-AEEA-γGlu-C20 diacid])CNTATCATQRLANFLRHSSPNFGAIPSSTNVGRNTY-NH2
modifications: disulfide 2-7; N-terminus assumed
SMILES: CC[C@H](C)[C@H](NC(=O)[C@H](C)NC(=O)CNC(=O)[C@H](Cc1ccccc1)NC(=O)[C@H](CC(N)=O)NC(=O)[C@@H]1CCCN1C(=O)[C@H](CO)NC(=O)[C@H](CO)NC(=O)[C@H](Cc1c[nH]cn1)NC(=O)[C@H](CCCNC(=N)N)NC(=O)[C@H](CC(C)C)NC(=O)[C@H](Cc1ccccc1)NC(=O)[C@H](CC(N)=O)NC(=O)[C@H](C)NC(=O)[C@H](CC(C)C)NC(=O)[C@H](CCCNC(=N)N)NC(=O)[C@H](CCC(N)=O)NC(=O)[C@@H](NC(=O)[C@H](C)NC(=O)[C@@H]1CSSC[C@H](NC(=O)[C@@H](N)CCCCNC(=O)COCCOCCNC(=O)COCCOCCNC(=O)CC[C@H](NC(=O)CCCCCCCCCCCCCCCCCCC(=O)O)C(=O)O)C(=O)N[C@@H](CC(N)=O)C(=O)N[C@@H]([C@@H](C)O)C(=O)N[C@@H](C)C(=O)N[C@@H]([C@@H](C)O)C(=O)N1)[C@@H](C)O)C(=O)N1CCC[C@H]1C(=O)N[C@@H](CO)C(=O)N[C@@H](CO)C(=O)N[C@H](C(=O)N[C@@H](CC(N)=O)C(=O)N[C@H](C(=O)NCC(=O)N[C@@H](CCCNC(=N)N)C(=O)N[C@@H](CC(N)=O)C(=O)N[C@H](C(=O)N[C@@H](Cc1ccc(O)cc1)C(N)=O)[C@@H](C)O)C(C)C)[C@@H](C)O
notes: also called 95; compound 95
B4: N^ε1-[2-[2-[2-(19-carboxynonadecanoylamino)ethoxy]ethoxy]acetyl]-[His14,Arg17,Pro21,Pro27]-h-amylin (peptide)
peptide: K([AEEA-C20 diacid])CNTATCATQRLAHFLRHSSPNFGAIPSSTNVGSNTY-NH2
modifications: disulfide 2-7; N-terminus assumed
SMILES: CC[C@H](C)[C@H](NC(=O)[C@H](C)NC(=O)CNC(=O)[C@H](Cc1ccccc1)NC(=O)[C@H](CC(N)=O)NC(=O)[C@@H]1CCCN1C(=O)[C@H](CO)NC(=O)[C@H](CO)NC(=O)[C@H](Cc1c[nH]cn1)NC(=O)[C@H](CCCNC(=N)N)NC(=O)[C@H](CC(C)C)NC(=O)[C@H](Cc1ccccc1)NC(=O)[C@H](Cc1c[nH]cn1)NC(=O)[C@H](C)NC(=O)[C@H](CC(C)C)NC(=O)[C@H](CCCNC(=N)N)NC(=O)[C@H](CCC(N)=O)NC(=O)[C@@H](NC(=O)[C@H](C)NC(=O)[C@@H]1CSSC[C@H](NC(=O)[C@@H](N)CCCCNC(=O)COCCOCCNC(=O)CCCCCCCCCCCCCCCCCCC(=O)O)C(=O)N[C@@H](CC(N)=O)C(=O)N[C@@H]([C@@H](C)O)C(=O)N[C@@H](C)C(=O)N[C@@H]([C@@H](C)O)C(=O)N1)[C@@H](C)O)C(=O)N1CCC[C@H]1C(=O)N[C@@H](CO)C(=O)N[C@@H](CO)C(=O)N[C@H](C(=O)N[C@@H](CC(N)=O)C(=O)N[C@H](C(=O)NCC(=O)N[C@@H](CO)C(=O)N[C@@H](CC(N)=O)C(=O)N[C@H](C(=O)N[C@@H](Cc1ccc(O)cc1)C(N)=O)[C@@H](C)O)C(C)C)[C@@H](C)O
notes: also called 90; compound 90
B5: N^α1-[(4S)-4-carboxy-4-[[(4S)-4-carboxy-4-(19-carboxynonadecanoylamino)butanoyl]amino]butanoyl]-[Glu14,Arg17,Pro21,Pro27,Pro37]-h-amylin (peptide)
peptide: {C20 diacid-γGlu-γGlu}-KCNTATCATQRLAEFLRHSSPNFGAIPSSTNVGSNTP-NH2
modifications: disulfide 2-7
SMILES: CC[C@H](C)[C@H](NC(=O)[C@H](C)NC(=O)CNC(=O)[C@H](Cc1ccccc1)NC(=O)[C@H](CC(N)=O)NC(=O)[C@@H]1CCCN1C(=O)[C@H](CO)NC(=O)[C@H](CO)NC(=O)[C@H](Cc1c[nH]cn1)NC(=O)[C@H](CCCNC(=N)N)NC(=O)[C@H](CC(C)C)NC(=O)[C@H](Cc1ccccc1)NC(=O)[C@H](CCC(=O)O)NC(=O)[C@H](C)NC(=O)[C@H](CC(C)C)NC(=O)[C@H](CCCNC(=N)N)NC(=O)[C@H](CCC(N)=O)NC(=O)[C@@H](NC(=O)[C@H](C)NC(=O)[C@@H]1CSSC[C@H](NC(=O)[C@H](CCCCN)NC(=O)CC[C@H](NC(=O)CC[C@H](NC(=O)CCCCCCCCCCCCCCCCCCC(=O)O)C(=O)O)C(=O)O)C(=O)N[C@@H](CC(N)=O)C(=O)N[C@@H]([C@@H](C)O)C(=O)N[C@@H](C)C(=O)N[C@@H]([C@@H](C)O)C(=O)N1)[C@@H](C)O)C(=O)N1CCC[C@H]1C(=O)N[C@@H](CO)C(=O)N[C@@H](CO)C(=O)N[C@H](C(=O)N[C@@H](CC(N)=O)C(=O)N[C@H](C(=O)NCC(=O)N[C@@H](CO)C(=O)N[C@@H](CC(N)=O)C(=O)N[C@H](C(=O)N1CCC[C@H]1C(N)=O)[C@@H](C)O)C(C)C)[C@@H](C)O
notes: also called 14; compound 14
B6: N^α1N^α1-[(4S)-4-carboxy-4-(19-carboxynonadecanoylamino)butanoyl]-[Glu14,Arg17,Pro21,Pro27,Glu35]-h-amylin (peptide)
peptide: {C20 diacid-γGlu}-KCNTATCATQRLAEFLRHSSPNFGAIPSSTNVGSETY-NH2
modifications: disulfide 2-7
SMILES: CC[C@H](C)[C@H](NC(=O)[C@H](C)NC(=O)CNC(=O)[C@H](Cc1ccccc1)NC(=O)[C@H](CC(N)=O)NC(=O)[C@@H]1CCCN1C(=O)[C@H](CO)NC(=O)[C@H](CO)NC(=O)[C@H](Cc1c[nH]cn1)NC(=O)[C@H](CCCNC(=N)N)NC(=O)[C@H](CC(C)C)NC(=O)[C@H](Cc1ccccc1)NC(=O)[C@H](CCC(=O)O)NC(=O)[C@H](C)NC(=O)[C@H](CC(C)C)NC(=O)[C@H](CCCNC(=N)N)NC(=O)[C@H](CCC(N)=O)NC(=O)[C@@H](NC(=O)[C@H](C)NC(=O)[C@@H]1CSSC[C@H](NC(=O)[C@H](CCCCN)NC(=O)CC[C@H](NC(=O)CCCCCCCCCCCCCCCCCCC(=O)O)C(=O)O)C(=O)N[C@@H](CC(N)=O)C(=O)N[C@@H]([C@@H](C)O)C(=O)N[C@@H](C)C(=O)N[C@@H]([C@@H](C)O)C(=O)N1)[C@@H](C)O)C(=O)N1CCC[C@H]1C(=O)N[C@@H](CO)C(=O)N[C@@H](CO)C(=O)N[C@H](C(=O)N[C@@H](CC(N)=O)C(=O)N[C@H](C(=O)NCC(=O)N[C@@H](CO)C(=O)N[C@@H](CCC(=O)O)C(=O)N[C@H](C(=O)N[C@@H](Cc1ccc(O)cc1)C(N)=O)[C@@H](C)O)C(C)C)[C@@H](C)O
notes: also called 22; compound 22

The target of the test is T1, human amylin receptor (amylin 3(a) receptor: human calcitonin receptor with RAMP-3) (human, UniProt P30988 25-474; O60896 24-148).
T1 construct: whole, on cells; also called hAmylin-R; hAmylinR
T1 sequence (looked up) 1: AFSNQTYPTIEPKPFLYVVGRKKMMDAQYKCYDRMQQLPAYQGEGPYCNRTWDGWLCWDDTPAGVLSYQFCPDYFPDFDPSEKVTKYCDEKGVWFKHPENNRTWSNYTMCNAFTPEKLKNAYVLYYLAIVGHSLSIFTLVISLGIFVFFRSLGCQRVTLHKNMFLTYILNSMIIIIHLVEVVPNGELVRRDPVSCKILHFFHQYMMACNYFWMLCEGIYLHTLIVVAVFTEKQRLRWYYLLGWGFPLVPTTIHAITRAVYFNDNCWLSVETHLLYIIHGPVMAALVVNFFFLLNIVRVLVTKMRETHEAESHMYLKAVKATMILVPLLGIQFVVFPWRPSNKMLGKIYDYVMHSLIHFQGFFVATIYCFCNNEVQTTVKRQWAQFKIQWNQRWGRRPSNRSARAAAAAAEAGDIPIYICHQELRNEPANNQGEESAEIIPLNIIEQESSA
T1 sequence (looked up) 2: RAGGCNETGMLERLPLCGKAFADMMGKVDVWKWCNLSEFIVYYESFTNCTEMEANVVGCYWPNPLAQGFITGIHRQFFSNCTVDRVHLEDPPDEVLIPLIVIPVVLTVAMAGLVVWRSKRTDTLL
Description: SPA displacement of 125I-rat amylin, hAmylin 3(a) receptor membranes. The method, boiled down:
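Cell membranes were prepared by homogenisation in Na-HEPES/EDTA buffer, pH 7.4, and stored at −80° C. They were then coupled to SPA beads at 35 ng/μL final and exposed to compounds in assay buffer containing CaCl2, MgCl₂, OA and Tween20. After 120 min at 25° C, plates were counted and IC₅₀ derived.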
As to B1, the IC50 stood at 0.919 nM.

Regarding B2, the IC50 came out at 0.119 nM. With B3 the figure was 0.967 nM; with B4, 0.061 nM; with B5, 0.196 nM.

Turning to B6, the IC50 was found to be 0.794 nM.
